{"source": "patent US20200087373A1", "about": "(UNIVERSITY OF COPENHAGEN, published 2020)", "note": "Ends that are not written are not given here. * marks the point of attachment. C16 diacid = O=C(O)CCCCCCCCCCCCCCC(=O)*"}
{"target": "T1, human GIP receptor (human, UniProt P48546 22-466)", "T1 sequence (looked up)": "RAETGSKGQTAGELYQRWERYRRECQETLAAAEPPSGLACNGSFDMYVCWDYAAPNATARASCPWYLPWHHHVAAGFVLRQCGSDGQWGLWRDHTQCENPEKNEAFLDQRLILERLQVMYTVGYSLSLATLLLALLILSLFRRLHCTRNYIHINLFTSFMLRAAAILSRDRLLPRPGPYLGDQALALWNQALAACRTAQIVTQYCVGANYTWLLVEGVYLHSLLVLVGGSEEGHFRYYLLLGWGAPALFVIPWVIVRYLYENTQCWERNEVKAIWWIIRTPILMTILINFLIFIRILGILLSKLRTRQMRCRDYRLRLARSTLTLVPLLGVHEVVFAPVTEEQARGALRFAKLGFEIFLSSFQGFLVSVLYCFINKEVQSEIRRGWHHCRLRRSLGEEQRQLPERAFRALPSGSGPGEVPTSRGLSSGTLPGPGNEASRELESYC", "assay": "cell-based or functional assay", "units": {"cAMP agonism, EC50 (log)": "log M", "cAMP agonism, Emax": "%", "cAMP agonism, nM (EC50)": "nM", "cAMP antagonism, log (IC50)": "log M", "cAMP antagonism, nM (IC50)": "nM"}}
{"binder": "EGTFISDYSIAMDKIHQQDK(C16 diacid)VNWLLAQK-NH2 (N-terminus assumed; SMILES CC[C@H](C)[C@H](NC(=O)[C@H](CO)NC(=O)[C@H](Cc1ccc(O)cc1)NC(=O)[C@H](CC(=O)O)NC(=O)[C@H](CO)NC(=O)[C@@H](NC(=O)[C@H](Cc1ccccc1)NC(=O)[C@@H](NC(=O)CNC(=O)[C@@H](N)CCC(=O)O)[C@@H](C)O)[C@@H](C)CC)C(=O)N[C@@H](C)C(=O)N[C@@H](CCSC)C(=O)N[C@@H](CC(=O)O)C(=O)N[C@@H](CCCCN)C(=O)N[C@H](C(=O)N[C@@H](Cc1c[nH]cn1)C(=O)N[C@@H](CCC(N)=O)C(=O)N[C@@H](CCC(N)=O)C(=O)N[C@@H](CC(=O)O)C(=O)N[C@@H](CCCCNC(=O)CCCCCCCCCCCCCCC(=O)O)C(=O)N[C@H](C(=O)N[C@@H](CC(N)=O)C(=O)N[C@@H](Cc1c[nH]c2ccccc12)C(=O)N[C@@H](CC(C)C)C(=O)N[C@@H](CC(C)C)C(=O)N[C@@H](C)C(=O)N[C@@H](CCC(N)=O)C(=O)N[C@@H](CCCCN)C(N)=O)C(C)C)[C@@H](C)CC)", "note": "[AT311 [hGIP(3-30)NH2[F22K]-C16diacid/22]]", "cAMP agonism, EC50 (log)": -6.1, "cAMP agonism, Emax": 17.5, "cAMP agonism, nM (EC50)": 784, "cAMP antagonism, log (IC50)": -6, "cAMP antagonism, nM (IC50)": 923}
{"binder": "EGTFISDYSIAMDKIHK(C16 diacid)QDFVNWLLAQK-NH2 (N-terminus assumed; SMILES CC[C@H](C)[C@H](NC(=O)[C@H](CO)NC(=O)[C@H](Cc1ccc(O)cc1)NC(=O)[C@H](CC(=O)O)NC(=O)[C@H](CO)NC(=O)[C@@H](NC(=O)[C@H](Cc1ccccc1)NC(=O)[C@@H](NC(=O)CNC(=O)[C@@H](N)CCC(=O)O)[C@@H](C)O)[C@@H](C)CC)C(=O)N[C@@H](C)C(=O)N[C@@H](CCSC)C(=O)N[C@@H](CC(=O)O)C(=O)N[C@@H](CCCCN)C(=O)N[C@H](C(=O)N[C@@H](Cc1c[nH]cn1)C(=O)N[C@@H](CCCCNC(=O)CCCCCCCCCCCCCCC(=O)O)C(=O)N[C@@H](CCC(N)=O)C(=O)N[C@@H](CC(=O)O)C(=O)N[C@@H](Cc1ccccc1)C(=O)N[C@H](C(=O)N[C@@H](CC(N)=O)C(=O)N[C@@H](Cc1c[nH]c2ccccc12)C(=O)N[C@@H](CC(C)C)C(=O)N[C@@H](CC(C)C)C(=O)N[C@@H](C)C(=O)N[C@@H](CCC(N)=O)C(=O)N[C@@H](CCCCN)C(N)=O)C(C)C)[C@@H](C)CC)", "note": "[AT308 [hGIP(3-30)NH2[Q19K]-C16diacid/19]]", "cAMP agonism, EC50 (log)": -7.5, "cAMP agonism, Emax": 7.9, "cAMP agonism, nM (EC50)": 34, "cAMP antagonism, log (IC50)": -6.9, "cAMP antagonism, nM (IC50)": 132}
{"binder": "EGTFISDYSIAMDKIHQK(C16 diacid)DFVNWLLAQK-NH2 (N-terminus assumed; SMILES CC[C@H](C)[C@H](NC(=O)[C@H](CO)NC(=O)[C@H](Cc1ccc(O)cc1)NC(=O)[C@H](CC(=O)O)NC(=O)[C@H](CO)NC(=O)[C@@H](NC(=O)[C@H](Cc1ccccc1)NC(=O)[C@@H](NC(=O)CNC(=O)[C@@H](N)CCC(=O)O)[C@@H](C)O)[C@@H](C)CC)C(=O)N[C@@H](C)C(=O)N[C@@H](CCSC)C(=O)N[C@@H](CC(=O)O)C(=O)N[C@@H](CCCCN)C(=O)N[C@H](C(=O)N[C@@H](Cc1c[nH]cn1)C(=O)N[C@@H](CCC(N)=O)C(=O)N[C@@H](CCCCNC(=O)CCCCCCCCCCCCCCC(=O)O)C(=O)N[C@@H](CC(=O)O)C(=O)N[C@@H](Cc1ccccc1)C(=O)N[C@H](C(=O)N[C@@H](CC(N)=O)C(=O)N[C@@H](Cc1c[nH]c2ccccc12)C(=O)N[C@@H](CC(C)C)C(=O)N[C@@H](CC(C)C)C(=O)N[C@@H](C)C(=O)N[C@@H](CCC(N)=O)C(=O)N[C@@H](CCCCN)C(N)=O)C(C)C)[C@@H](C)CC)", "note": "[AT309 [hGIP(3-30)NH2[Q20K]-C16diacid/20]]", "cAMP antagonism, log (IC50)": -7.4, "cAMP antagonism, nM (IC50)": 36}
{"binder": "EGTFISDYSIAMDKIHQQK(C16 diacid)FVNWLLAQK-NH2 (N-terminus assumed; SMILES CC[C@H](C)[C@H](NC(=O)[C@H](CO)NC(=O)[C@H](Cc1ccc(O)cc1)NC(=O)[C@H](CC(=O)O)NC(=O)[C@H](CO)NC(=O)[C@@H](NC(=O)[C@H](Cc1ccccc1)NC(=O)[C@@H](NC(=O)CNC(=O)[C@@H](N)CCC(=O)O)[C@@H](C)O)[C@@H](C)CC)C(=O)N[C@@H](C)C(=O)N[C@@H](CCSC)C(=O)N[C@@H](CC(=O)O)C(=O)N[C@@H](CCCCN)C(=O)N[C@H](C(=O)N[C@@H](Cc1c[nH]cn1)C(=O)N[C@@H](CCC(N)=O)C(=O)N[C@@H](CCC(N)=O)C(=O)N[C@@H](CCCCNC(=O)CCCCCCCCCCCCCCC(=O)O)C(=O)N[C@@H](Cc1ccccc1)C(=O)N[C@H](C(=O)N[C@@H](CC(N)=O)C(=O)N[C@@H](Cc1c[nH]c2ccccc12)C(=O)N[C@@H](CC(C)C)C(=O)N[C@@H](CC(C)C)C(=O)N[C@@H](C)C(=O)N[C@@H](CCC(N)=O)C(=O)N[C@@H](CCCCN)C(N)=O)C(C)C)[C@@H](C)CC)", "note": "[AT310 [hGIP(3-30)NH2[D21K]-C16diacid/21]]", "cAMP agonism, EC50 (log)": -7.4, "cAMP agonism, Emax": 6.2, "cAMP agonism, nM (EC50)": 39, "cAMP antagonism, log (IC50)": -7.3, "cAMP antagonism, nM (IC50)": 49}
{"binder": "EGTFISDYSIAMDKIHQQDFVNK(C16 diacid)LLAQK-NH2 (N-terminus assumed; SMILES CC[C@H](C)[C@H](NC(=O)[C@H](CO)NC(=O)[C@H](Cc1ccc(O)cc1)NC(=O)[C@H](CC(=O)O)NC(=O)[C@H](CO)NC(=O)[C@@H](NC(=O)[C@H](Cc1ccccc1)NC(=O)[C@@H](NC(=O)CNC(=O)[C@@H](N)CCC(=O)O)[C@@H](C)O)[C@@H](C)CC)C(=O)N[C@@H](C)C(=O)N[C@@H](CCSC)C(=O)N[C@@H](CC(=O)O)C(=O)N[C@@H](CCCCN)C(=O)N[C@H](C(=O)N[C@@H](Cc1c[nH]cn1)C(=O)N[C@@H](CCC(N)=O)C(=O)N[C@@H](CCC(N)=O)C(=O)N[C@@H](CC(=O)O)C(=O)N[C@@H](Cc1ccccc1)C(=O)N[C@H](C(=O)N[C@@H](CC(N)=O)C(=O)N[C@@H](CCCCNC(=O)CCCCCCCCCCCCCCC(=O)O)C(=O)N[C@@H](CC(C)C)C(=O)N[C@@H](CC(C)C)C(=O)N[C@@H](C)C(=O)N[C@@H](CCC(N)=O)C(=O)N[C@@H](CCCCN)C(N)=O)C(C)C)[C@@H](C)CC)", "note": "[AT314 [hGIP(3-30)NH2[W25K]-C16diacid/25]]", "cAMP agonism, EC50 (log)": -7.2, "cAMP agonism, Emax": 28.4, "cAMP agonism, nM (EC50)": 62, "cAMP antagonism, log (IC50)": -7, "cAMP antagonism, nM (IC50)": 101}
{"binder": "EGTFISDYSIAMDKIHQQDFK(C16 diacid)NWLLAQK-NH2 (N-terminus assumed; SMILES CC[C@H](C)[C@H](NC(=O)[C@H](CO)NC(=O)[C@H](Cc1ccc(O)cc1)NC(=O)[C@H](CC(=O)O)NC(=O)[C@H](CO)NC(=O)[C@@H](NC(=O)[C@H](Cc1ccccc1)NC(=O)[C@@H](NC(=O)CNC(=O)[C@@H](N)CCC(=O)O)[C@@H](C)O)[C@@H](C)CC)C(=O)N[C@@H](C)C(=O)N[C@@H](CCSC)C(=O)N[C@@H](CC(=O)O)C(=O)N[C@@H](CCCCN)C(=O)N[C@H](C(=O)N[C@@H](Cc1c[nH]cn1)C(=O)N[C@@H](CCC(N)=O)C(=O)N[C@@H](CCC(N)=O)C(=O)N[C@@H](CC(=O)O)C(=O)N[C@@H](Cc1ccccc1)C(=O)N[C@@H](CCCCNC(=O)CCCCCCCCCCCCCCC(=O)O)C(=O)N[C@@H](CC(N)=O)C(=O)N[C@@H](Cc1c[nH]c2ccccc12)C(=O)N[C@@H](CC(C)C)C(=O)N[C@@H](CC(C)C)C(=O)N[C@@H](C)C(=O)N[C@@H](CCC(N)=O)C(=O)N[C@@H](CCCCN)C(N)=O)[C@@H](C)CC)", "note": "[AT312 [hGIP(3-30)NH2[V23K]-C16diacid/23]]", "cAMP agonism, EC50 (log)": -5.4, "cAMP agonism, Emax": 54, "cAMP agonism, nM (EC50)": 4080}
{"binder": "EGTFISDYSIAMDKIHQQDFVK(C16 diacid)WLLAQK-NH2 (N-terminus assumed; SMILES CC[C@H](C)[C@H](NC(=O)[C@H](CO)NC(=O)[C@H](Cc1ccc(O)cc1)NC(=O)[C@H](CC(=O)O)NC(=O)[C@H](CO)NC(=O)[C@@H](NC(=O)[C@H](Cc1ccccc1)NC(=O)[C@@H](NC(=O)CNC(=O)[C@@H](N)CCC(=O)O)[C@@H](C)O)[C@@H](C)CC)C(=O)N[C@@H](C)C(=O)N[C@@H](CCSC)C(=O)N[C@@H](CC(=O)O)C(=O)N[C@@H](CCCCN)C(=O)N[C@H](C(=O)N[C@@H](Cc1c[nH]cn1)C(=O)N[C@@H](CCC(N)=O)C(=O)N[C@@H](CCC(N)=O)C(=O)N[C@@H](CC(=O)O)C(=O)N[C@@H](Cc1ccccc1)C(=O)N[C@H](C(=O)N[C@@H](CCCCNC(=O)CCCCCCCCCCCCCCC(=O)O)C(=O)N[C@@H](Cc1c[nH]c2ccccc12)C(=O)N[C@@H](CC(C)C)C(=O)N[C@@H](CC(C)C)C(=O)N[C@@H](C)C(=O)N[C@@H](CCC(N)=O)C(=O)N[C@@H](CCCCN)C(N)=O)C(C)C)[C@@H](C)CC)", "note": "[AT313 [hGIP(3-30)NH2[N24K]-C16diacid/24]]", "cAMP agonism, EC50 (log)": -7, "cAMP agonism, Emax": 7.2, "cAMP agonism, nM (EC50)": 97, "cAMP antagonism, log (IC50)": -6.5, "cAMP antagonism, nM (IC50)": 348}
